Experiment: soluble fraction after stress (log2 fold change); higher = more stays soluble; pooled small domains, quantitative proteomics
Conditions: stress: 50 degC
Summary of the method: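 Each library was heated to 50°C as a stress step. The libraries, made up of small protein domains, were pooled and analysed at high throughput by quantitative proteomics. The reported value is the base-two logarithm of the fold change in each protein's soluble amount after stress, taken as a measure of aggregation propensity. The higher the value, the more protein stays in solution.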

Which “soluble fraction (log2)” value does the source give for “HMGETWYEILEISSDATTEEIRQAYFEQARQYHPDTNPGELAREWFYQVQEAYETLSDPDRRRQYDESIKG” here?
The value was -0.402.

With “HMNVEVDSIGDDDFLVKVSAGTSTEHRVTLTDAYWEQIWSSSLPKKEIISLSFAFLLEREPNSSIMRT” as the sequence, how does the “soluble fraction (log2)” value read?
The value was 0.0604.

Which “soluble fraction (log2)” value does the source give for “HMSTDNINYKNILIASLLIHAAKIDENYTENEKNIIKKALIELDEIDSKKADEIMILAEKKE” here?
The value was -0.221.

Which “soluble fraction (log2)” value does the source give for “HMSLLTPLEEARIVIEELIIPQKLTLDLLPQNSQIRKLQHEIINHYRLKGISIGDGKNRRVRIYS” here?
Its value is -0.133.

Which “soluble fraction (log2)” value does the source give for “HMSNEEEIEGLVSKVLDNNPEIVERIRSGEDKLISYLVGEVMKQSSSSLNPGIVKEIIVNKTI” here?
Its value is 0.161.

For “HMISLPSYIREEATEVYNRLHDLGLEYTSLDVNDDSIPKGYVVRTVPEAGASVPAGQVVTVYVSLG”, which “soluble fraction (log2)” value is on record?
The value was -0.446.

With “HMKIETVENPLLERTEISALFDSKSGSLTRKEAIDLISKKARIDSSTVYAIKLSNSSGSTRIIGLFY” as the sequence, how does the “soluble fraction (log2)” value read?
The value was 0.0692.

For “HMNELIGVEQLQDLREAIADHGFAEQRVLNWLYQATKGQVSRLEQLPLPMLTTLHKKLGQWADAEAAASSA”, which “soluble fraction (log2)” value is on record?
Its value is -0.0602.

With “HMSKHATLLEALAELTVKLKPHTQLPSERQLSEDFGVSRMTLRRAIDVMQSRGYIYTVPSKGLYVSEP” as the sequence, how does the “soluble fraction (log2)” value read?
The value was -1.59.

For “HMGDLKSLIQATMDDAGISIKPDAMDYLISHLGSDRLTTRAELDKLILYAGADDKLDLDSVVELVG”, which “soluble fraction (log2)” value is on record?
The value was -0.0746.

For “HMIDIDNLEKAAILLLSMGTEAAAKVMQKLSRDEVQRLISKMASLSGVSSIEAKWTLQQFFNQYREQSG”, which “soluble fraction (log2)” value is on record?
The value was -0.638.

For “HMAVSVPDVMGLTYEEAYNKITAEGLLVNRLESYTGLVEKGRVISQLPVGGEPAAKGSTVNVNVSL”, which “soluble fraction (log2)” value is on record?
The value was 0.252.

Which “soluble fraction (log2)” value does the source give for “HMPPGQIVNEALQRAGNSTPTGTAISAQDDIKLYTSALAELATQGDTSSASVAKLREALQTAQVAFYNAV” here?
The value was 0.0769.

With “HMKQAINFSDLNSLEEGLGIAIRQKWNEVSINDVPEDKIELVEDWINNNRGKYKGINISIGSTY” as the sequence, how does the “soluble fraction (log2)” value read?
The value was 0.167.

With “HMKEVDERPWGKYEVLLDAPDVKVKRITVNPGQRLSYQYHEKRAEVWTVVSGILTIILEDDKLFRG” as the sequence, how does the “soluble fraction (log2)” value read?
The value was 0.237.

With “HMDPQDGTVKFFNGARGFGFITPDGGGADVFVHVSAVERAGLTQLVEGQRVNFQTLPDTKGKGPKAVNLKV” as the sequence, how does the “soluble fraction (log2)” value read?
Its value is 0.0729.

With “HMFMKNTEVALAIKGKFSNQTTITSKELVLFLSDLFPELSNKTIPWKINQLKAENLIYQTGRGIYTFN” as the sequence, how does the “soluble fraction (log2)” value read?
Its value is -2.57.

With “HMKLTNIQYETLKVVVESRAKIDEEEGITIKLEDIKKYIDQAISFTGLVGDDEDYKKLFADMEYRFKIQ” as the sequence, how does the “soluble fraction (log2)” value read?
The value was -2.38.

For “HMEDIQPSVIFQNNMIDGFKKFGVSFLQNRRNVNVNTLNGLASAGTYPKWQQLLVNKISYIDMLLSTGG”, which “soluble fraction (log2)” value is on record?
The value was 0.0785.

Which “soluble fraction (log2)” value does the source give for “HMYPTPAAANRHFLDKWGHQEAYLGKVLNSRSRASEILNGKRPLSLSDLRTLRDNLGIPVDLLL” here?
The value was -0.489.

Which “soluble fraction (log2)” value does the source give for “HMGEPLSPDARALTNVLRHYRGWAEPGELARKSGLGSRERVLTAAQSLVNAGLADIERGMVRPTAALMEVQ” here?
Its value is 0.0805.

With “HMGGGRELGLDPETGKKISVRLGKFGPFVQLGESGEEDKPVFANLGKNQSIATLSLEEAIALLARPK” as the sequence, how does the “soluble fraction (log2)” value read?
The value was 0.246.

Which “soluble fraction (log2)” value does the source give for “HMQYKTRVINLSILEVGMVLGRDLINKDGKIIVKKDVAISDFLKDHLIGLSKIKEIEPQIYIKV” here?
Its value is -1.08.

Which “soluble fraction (log2)” value does the source give for “HMNEVETWSVQADGATGRIDKWLAEQNEWSRSQVQEWLKAGRVEVDGRVVKPNYKLSGTESIAVHIPEAV” here?
The value was -0.0928.

For “HMRSFADEGTVEEWIKQAIRENEAAVADYRKGKETAVKFLMGQVMRLSKGEANPADLEDKIKAKLD”, which “soluble fraction (log2)” value is on record?
Its value is 0.0903.

With “HMGYSDEIGEFIKKLRTENHLTQKEFADKYGVTYQAVSKWENGKNLPDMSLIKQMSEDFNIGIDELLDGEK” as the sequence, how does the “soluble fraction (log2)” value read?
Its value is -0.00754.

Which “soluble fraction (log2)” value does the source give for “HMFNPEQDPKQLTGRERAVADLIGLGANNAEIAIRLSMSERTVKAHLTSIFQQLNVRDRVQLALVMNQL” here?
Its value is -0.585.

For “HMVPFISVTPTSLSFAKGGESKTVDIEASGAFSVGKVPTGFNLEVVNGRITITADANTGAARNGSVEFILA”, which “soluble fraction (log2)” value is on record?
Its value is -0.0614.

Which “soluble fraction (log2)” value does the source give for “HMTSVFQNSDGTWGHLTKTVNPLIYTIEYGRRTGFSSREEAEESYQRSLTSYQDQLSKLKKERD” here?
The value was 0.314.

For “HMTVGEKIQYYRKKIGLSQEELGQKMLLSRQTISLWEMDKTLPTVDNLLRLKEIFSVSIDELLSENEPK”, which “soluble fraction (log2)” value is on record?
Its value is 0.013.

Which “soluble fraction (log2)” value does the source give for “HMQNAMQKELIDAFQKAYPDLDITKIELVYGTYYEVEAMNSTTEFTYRYDQNSKTFILAEQDNADP” here?
The value was -0.202.

Which “soluble fraction (log2)” value does the source give for “HMGDFVIVPDLIGKTIEEFDSELNELNLKYIISDSGNYNPDFKINSVLDQLPNANSKVKGGRKIYITLNAS” here?
The value was -1.37.

Which “soluble fraction (log2)” value does the source give for “HMKYSNDEVERDLYVRGVIYQIGDLVENKLDGTSGEVVRRGPNYVQYTDGENFYKAFLSALQEQK” here?
Its value is -0.354.

With “HMRRGKLGMASRLEQIPGIGPKKRKALLKAFGNSIDAIKSAPVEDLMKVKGINLVLAESIKEL” as the sequence, how does the “soluble fraction (log2)” value read?
Its value is 0.0167.

With “HMRKVTDTHELSSVVKSVIDQWEEKAAEYRAGKSGLLGFFVGEVMKKTGGAADPEAAKSLLQDRLD” as the sequence, how does the “soluble fraction (log2)” value read?
Its value is 0.18.

Which “soluble fraction (log2)” value does the source give for “HMLTRYNVNYYYNGEILQRRKVAEGSAAERITYLSGSLEVTDWYTEADLLRKYDFTEPVTGDLNLYAFARI” here?
The value was -1.05.

For “HMADDFISTLFSEGIIIDTEVKQFAERQGSPLQFVRHIASNLPEPRDIITMGEVRSVMREGA”, which “soluble fraction (log2)” value is on record?
The value was -0.149.

For “HMQVTEVDYGTFMKMVEEKNVGEVEVGNSMIVFTDKDGKAIYKTGAMNDPNLTERLYNAGASFTKE”, which “soluble fraction (log2)” value is on record?
The value was 0.0396.

For “HMSLSNMIGKNIQWTHVTKTKDAEGNPKTNSETFAGNVRGVKVLNGKPMVVAQDAKGKLHEVEVSEIEAIA”, which “soluble fraction (log2)” value is on record?
Its value is 0.234.

For “HMNETHANKVYNFLKKKKKPLSAYEILKELASEGISAPTTIYRALNKLVSNGLIHKIESLNAWTV”, which “soluble fraction (log2)” value is on record?
The value was 0.318.

With “HMGITPSIEMILEYFAFKESSETEANKFFNYYSSIGWLVGGKTKMKDWKASARNWIMNQNKFQ” as the sequence, how does the “soluble fraction (log2)” value read?
The value was -3.97.

Which “soluble fraction (log2)” value does the source give for “HMTSLTSDEEQIINVLRAEESVYINALATKSKIPLQKLLGLLIQLEFKGLIHSLPGSHYKIV” here?
Its value is -0.138.

Which “soluble fraction (log2)” value does the source give for “HMTISPYTKDDFLKGTKPFEDVYAHKADPFVHDRALEQMTIWAKSVGVNGFKKLYKAYIDSLRIKNKEI” here?
The value was 0.0524.

For “HMSSPRAIYSAIQKAVGEDMILYREDVQIILDKLDADLLVDDILEKMELDGTLVRQRDGTWLLL”, which “soluble fraction (log2)” value is on record?
Its value is -0.658.

With “HMRGSRIFSGDVSPLTLPANSPFFSGYTEFKPGDVYVERSATNIAMWEWKSQPGGYTWVKTADIA” as the sequence, how does the “soluble fraction (log2)” value read?
The value was -0.169.

With “HMSRYAFEGNVVRLNQKDFDSWKALFTNIDLVSELTRLDIEFTHDKPKNWFSTASAKLNYQNKNAY” as the sequence, how does the “soluble fraction (log2)” value read?
Its value is -2.27.

For “HMQNYLEFIGNELKALTSIPSPSGYTKDVAAYLMKTLSDMGYEPQLSNKGNVFVTIGGEGNPLVLAAHVD”, which “soluble fraction (log2)” value is on record?
Its value is -0.0984.

With “HMKVSRTAVKLHHANAVEVAKKLQPLFVVGDVQIEPVKDAGIILLKGPASTLADLRESIVQMDHTA” as the sequence, how does the “soluble fraction (log2)” value read?
The value was -0.0461.

Which “soluble fraction (log2)” value does the source give for “HMPDVAIMNVSVEPEKKVVRLQVKAISLEALLDFSTRLEAIPARVELQNHTPSKELSQKWAVNATLIVIY” here?
The value was 0.146.

For “HMHNSPSPVATTILRFLQPVRAFVGDTEDMRTFGPFLREDVAMVPASQAKNLIRSGHAVEINP”, which “soluble fraction (log2)” value is on record?
Its value is -0.0361.

Which “soluble fraction (log2)” value does the source give for “HMKNLDILTPKEIEVLNLVAKGYSNSKISKELDIAEVTVKKHIGSMFQKLDVKDRLSLALIL” here?
The value was -0.118.

With “HMYMKGKVKWFDSKKGYGFITSENGKEIFVHFSGIAAKGFKSLNEGQTVEFEVANGAKGEQAVNVTV” as the sequence, how does the “soluble fraction (log2)” value read?
Its value is -0.804.

For “HMNGIFEYSDAKKVPSLVEIENAYRRARVNGAEKFAVIINGEYFGYNPQKRGIYKLNDGEYQIL”, which “soluble fraction (log2)” value is on record?
The value was -0.0706.

With “HMEDPAVYYKILQIPPDASLSEIHRAFEKITSAWDPERYPHISSWKETSAKKLQEIRNAYEKLLILRETG” as the sequence, how does the “soluble fraction (log2)” value read?
Its value is -0.0409.

With “HMELDFNSVYRQLNHEQKQAYQSIKSVLEQKISGSELDKKLKQAQQAFVAKFKENPNFEVPK” as the sequence, how does the “soluble fraction (log2)” value read?
The value was 0.31.

— the domain aggregation screens of Martell et al. (2025)
